The nature of the series: yeast display, Sf9 membrane polyspecificity reagent, FACS + sequencing; frameworks hold sequencing errors. The method in brief:
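Galactose-induced (36–48 hours) yeast carrying a synthetic nanobody display library were exposed to 10% biotinylated, detergent-solubilized Sf9 membrane reagent at 4 °C for 1 hour. FACS followed streptavidin microbead enrichment, using low and high (top ~1%) gates for expression (anti-HA) and reagent binding (streptavidin). Colony PCR, MiSeq 2 × 250 sequencing and CDR-length filtering followed. Labels for polyreactivity reflect the gate of origin.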
On to “QVQLVESGGGLVQAGGSLRLSCAASGSTIVYYAMGWYRQAPGKERELVAAITSDGSTDYADSVKGRFTISRDNAKNTVYLQMNSLKPEDTAVYYCAVVTFYFCTDYYDVDYWGQGTQVTVSS”, for which the “polyreactivity (PSR sort gate)” value is listed as “low polyreactivity”. Turning to “QVQLHESGGGLVQAGGSLRQSCAASGTISYAGPMGWYRKAPGKEREFVAGIGVGSNTNYADSVKGRYTIIRDNAKNTVYLQMNSLKPEDTAVNYCAVGGYAPLGRPYWGLGTQVTVSS”, the “polyreactivity (PSR sort gate)” value was “low polyreactivity”. Consider “QVQLVESGGGLVQAGGSLRLSCAASGRTFVLYAMGWYRQAPVKERELVASITWSGVSTTYADSVKGRFTISRDNAKNTVYLQMNSLKPEDTAVYYCAKDGLFEQGYPYQLGYWGQGTQVTVSS”, for which the “polyreactivity (PSR sort gate)” value was “low polyreactivity”. The value for “QVQLVESGGGLVQAGGSLRLSCAASGFTFRYYAMGWYRQAPGKERELVAAISSGGRTNYADSVKGRFTISRDNAKNTVYLQMNSLKPEDTAVYYCAKAQYYYIGDYDYWGQGTQVTVSS” was “high polyreactivity”. With “QVQLVESGGCLVQAGGSLRLSSAASGITFYLYAMGWYRKAPGKVRELVATISRSGGSTYADSVKGRFTISRDNAKNTVYLQMHSMKPEDTAVYYCNADLLSTGFIAYDYWGQGTQVTVSS”, the “polyreactivity (PSR sort gate)” value is recorded as “low polyreactivity”. For “QVQLVESGGGLVQAGGSLRLSCAASGRTFAQNAMGWYRQAPGKERELVAAISSGGGRTYYADSVKGRFTISRDNAKNTVFLQMNSLKREDTAVYYCAAQGWLSYRYSPLKFGYWGQGTQVTVSS”, the “polyreactivity (PSR sort gate)” value is on record as “high polyreactivity”. For the sequence “QVQLVESGGGLVQAGGSLRLSCAASGGLFKVYGMRLYRQAPGQERELVAAISWTTGGTYYADSVKGRFTISRDNAKNTVYLQMNSLKPEDTAVYYCNAPTWYYSGVRYDYWGQGTQVTVSS”, the “polyreactivity (PSR sort gate)” value is on record as “high polyreactivity”. As for “QVQHEESGGGLVQAGGSLRLSSAASGSTFVDYDMGCYRQAPGKVRELVAGITTGGSTNYADSVKGRFTISRDNALNTVYLQLKRLKPEDTAVYYCNSDSYTNLVPDYLYYWYEYWGQGTQVTVSS”, the “polyreactivity (PSR sort gate)” value is recorded as “low polyreactivity”. As to “QVQLVESGGGLVQAGGSLRLSCADSGRTSYYYVMGWYRQAPGKERELVAAIRSRGGSTYYADSVKGRFTISRDNAKNTVYLQMNSLKPEDTAVYYCAARYGFWSYDFGYWGLGTQVTVSS”, the “polyreactivity (PSR sort gate)” value is “high polyreactivity”. On to “QVQLVESGGGLVQAGGSLRLSCAASGRTFEHYSMGWYRQAPGKEREFVAVIDSSDGSTYYADSVKGRFTISRDNAKNTVYLQMNSLKPEDTAVYYCLGGYYYLQYDYWGQGTQVTVSS”, for which the “polyreactivity (PSR sort gate)” value is “low polyreactivity”.

Take “QVQLVESGGGLVQAGGSLRLSCAASGGIFRGYVMGWYRQAPGKERELVAAISYSGGNTYYADSVKGRFTISRDNAKNTVYLQMNSLKPEDTAVYYCDTVRSDFHSDDYWGQGTQVTVSS”: the “polyreactivity (PSR sort gate)” value is “low polyreactivity”.

In the case of “QVQLVESGGGLVQAGGSLRLSCAASGSTVSPNAMGWDRPAPGKERELVAAITYRGANTYYADSVKGRFTISRDNAKNTVYLQMNSLKPEDTAVYYCAATYGSWISLRFYWGQGTQVTVSS”, the “polyreactivity (PSR sort gate)” value was “low polyreactivity”. In the case of “QVQLVESGGGLVQAGGSLRLSCAASGSTFVYNAMGRYRQAPVKERELVAAISSGGSTYYADSVKGRFTISRDNAKNTVYLQMNSLKPEATAVYYCNARGSWRRDKYGTYYRYDYWGQGTQVTVSS”, the “polyreactivity (PSR sort gate)” value was “high polyreactivity”.

In the case of “QVQLVESGGGLVPAGGSLRLRCAASGYIFRQNAMGWYRQAPGKERELVAVITARGGSTYYADSVKGRFTISRDNEKNTVYLQMNSLKPEDTAVYYCNARYYRRQYRGGAYWGQGTQVTVSS”, the “polyreactivity (PSR sort gate)” value is “low polyreactivity”. With “QVQLVESGGCLVQAGGSLRLSCAASGSIFLSNAMGWYRQAPGKERELVATIDDNGGSTYYADSVKGRFTISRDNAKNTVYLQMNSLKPEDTAVYYCAKQVRVWDLYYYLEEGYWGQGTQVTVSS”, the “polyreactivity (PSR sort gate)” value is “low polyreactivity”.

For “QVQLVESGGGLVQAGGSLRLSCDASGSIFRLYAMGWYRQAPGKERELVARITRRCGDTYADSVKGRFTISRDNAKNTVYLQMNSLKREDTAVYYCAADGYHRYPGSSGYGYWGQGTQVTVSS”, the “polyreactivity (PSR sort gate)” value was “high polyreactivity”. In the case of “QVQLVESGGGLVQAGGILRLSCAASGHIFFYYNMGWYRQAPGKERELVAGITIGGSTNYADSVKGRFTISRDNAKNTVNLQMNSLTPEDTAVYYCAKGGEVSQGYTDEYDYWGLGTQVTVSS”, the “polyreactivity (PSR sort gate)” value is reported as “low polyreactivity”. Regarding “QVQLVESGGGLVHAGGSLRLSCAASGRISFYYALGWYRQAPGKERALVATISRGDITYYADSVKGRFTISRDNAKNTVYLQLNSLKPEDTAVYYCNARNNYWWYGPGYVYWGQGTQVTVSS”, the “polyreactivity (PSR sort gate)” value is on record as “low polyreactivity”. The value for “QVQLVESGGGLVQAGGSLRLSCAASGSSFPGYAMGWYRKAPGKERELVATSTYSDGSTYYADSVKGRFTISRDNAKNTVYLQMNSLKPEDTAVYYCAVTYWWYYGYDYWGQGTQVTVSS” was “low polyreactivity”; that for “QVQLVESGGGLVQAGGSLRISCAASGRTFARYAMGWYRQAPGKERELVAAISRSGSTYYADSVKGRFTISRDNAKNTVYLQMNSLKPEDTAVYFCAKDTRFAGSYKYYYWGQGTQVTVSS” was “high polyreactivity”. “QVQLVESGGGLVQAGGSLRLSCAASGTTFSRYAMGWYRQAPGKEREFVAAISRRAGGTYYADSVKGRFTISRDNAKNTVYLQMNSLKPEDTAVYYCAKVLPRDYIGRATYDYWGQGTQVTVSS”: the “polyreactivity (PSR sort gate)” value is given as “high polyreactivity”.

“QVQLVESGGGLVQAGGSLRLSCAASGITFVRYAKGWYRHAPGKEREFVARISRSGASTYYADSVKGRFTISRDNAKNTVYLQMNSLKPEDTAVYYCNAVPGGSRFDYWGQGTQVTVSS”: the “polyreactivity (PSR sort gate)” value is “high polyreactivity”. Regarding “QVQLEESGGGLVQAGGSLRLTCAASGRTFDFYAMGWYRQAPGKEREFVAAITFSTGSTTYADSVKGRFTISRDNAKNTVYLQMNSLKPEDTAVYYCNADAFNKISYVWYDYWGQGTQVTVSS”, the “polyreactivity (PSR sort gate)” value was “low polyreactivity”. On to “QVQLVDSGGGLVQAGGSLRLSCAASGGIFGYGMGWYRQAPGKERELVAAITRSGGSTSYADSVKGRFTISRDNAKYTVYLQMNSVKPEDTAVYFCASRTRYSRYKSGYWGQGTQVTVSS”, for which the “polyreactivity (PSR sort gate)” value is “high polyreactivity”.

As for “QVQLVESGGGLVQAGGSLRLSCAASGRTFYRNDMGWYRQAPGKERELVAAITSSGGTTYADSVKGRFTISRDNAKNTVYLQMNSLKPEDTAVYYCAAVYAYPNIYDYWGQGTQVNVSS”, the “polyreactivity (PSR sort gate)” value is listed as “low polyreactivity”.

On to “QVQLVESGGGLVQAGGSLLLSCAASGSIFYSNAMAWYRQAPGKERELVATITWSGGRTYYADSVKGRFTISRDNAKNTVYLQMNSLKPDDTAVYYCAAVSIYWGQGTQVTVSS”, for which the “polyreactivity (PSR sort gate)” value is on record as “low polyreactivity”. The value for “QVQLVESGGGLVQAGGSLRLSCSASGSTFSENAMGWYRQAPGKERELVAAISWGGGSTYYADSVKGRFTISRDKAKNTVYLQMNSLKPEDTSVYYCNADVFDDYCDFESDDWGQGTQVTVSS” was “low polyreactivity”; that for “QVQLVESGGGLVQAGGSLRLSCAASGSTFWWNTRGWYRQAPGKERELVADIRTSGGGTYYADSVKGRFTISLDNAKNTFYLQMNSLKPEDTAVYYCNADPKWEMGSWGQGTQVTVSS” was “low polyreactivity”.

For “QVQLVESGGGLVQAGVSLRLSCAASGSIFFYNARGWYRQAPRKERELVAAITTRGGSTYYADSVKGRFTISRDNAQNYVYLQMNSLKPEDTAVSYCARSSRGKLDYWGQGTQVTVSS”, the “polyreactivity (PSR sort gate)” value was “low polyreactivity”.

Regarding “QVQLVESGGGLVQAGGSLRLSCAASGRIFPKYAMGWYRHAPGTERELVGAISGSSGSTYYADSVKGRFTISRDNAKNTVYLQMNSLKPDDTAVYYCAARRYRISKTSGYCGQGTQVTVSS”, the “polyreactivity (PSR sort gate)” value is given as “high polyreactivity”. The value for “QVQLVESGGGLVQAGGSLRLSCAASGGTFYVYAMGWYRQAPGKERELVAAISTSDGITYYADSVKGRFTISRDNAKNTVYLQMNSLKPEDTAVYYCAAEFFSSFTYAYDYWGQGTQVTVSS” was “high polyreactivity”; that for “QVQLEESGGGLVQAGGSLRLSWAASGITFAYYAMGWYRQAPGKERELVAAINYNGGRTYYADSVKGRFTISRDNAKNTVYLQMNSLKPEDTAVYYCAARGYRHFYYWGQGTQVTVSS” was “high polyreactivity”.

As for “QVQLVESGGGLVQAGGSLRLSCAASGSTLLTYTMGWYRQAPGKESELVASITTSGGSTYYADSVKGRFTISRDNAKNTVYLQMNSLKPEDTAVYYWGQGTQVTVSS”, the “polyreactivity (PSR sort gate)” value was “low polyreactivity”. As to “QVQHVESGGGLVQAGGSLRLSCAASGSTFDDNVMGWYRQAPGKERELVAAISSSGGSTYYADSVKGRFTISRDNAKNTVYLQMNSLKPEDTAVYYCNAVYFGLWGYYARRSYNYWGQGTQVTASS”, the “polyreactivity (PSR sort gate)” value was “low polyreactivity”. Take “QVQLVDSGGGLVQAGGSLRLSCAASGSTFQGNTMGWYRQAPGKERELVAAISRSGGITYYADSVKGRFTISRVNAKNTVYLQMNSLKPEDTAVYYCAAKQVFTAGRSVDYWGQGTQVTVSS”: the “polyreactivity (PSR sort gate)” value was “high polyreactivity”. The value for “QVQLVESGGGLVQAGGSLRLSCAASGSTFVGYAMGWYRQAPGKERELVAAISWRGTRTYYADSVKGRFTISRDNAKNTVYLQMNSLKPEDTAVYYCAAVARQGKGYDYWGQGTQVTVSS” was “high polyreactivity”. Take “QVQLVESGGCLVQAGGSLRLSCAASGRTLDFNVLGWYRPAPGQERELVAAITWSGGSTYYADSVKGRFTISRDNAQNTVYLQMNSLKQEDTAGYYCAAKALYAYRLYDYSGQGTQVTVSS”: the “polyreactivity (PSR sort gate)” value was “high polyreactivity”. The value for “QDQLVQSGLGLVQAGGSLRLSCAASGITFYWYTIAWYRQATGKERELVAAISRRGGSTSYADSVKGRFTISRDNAKNTVYLQMNSLKPEDTAVYYCAKTPGWTDYDYWGQGTQVTVSS” was “high polyreactivity”. In the case of “QVQLVESGGGLVQAGGSLPLSCAASGRTFRSNAMGWYRQAPGKERELVAAISWSGGSTYYADSVKGRFTISRDNAKTSVYFQLNSLKPEDTAVYYCAAYYYTRFEWGQGTQVTVSS”, the “polyreactivity (PSR sort gate)” value was “high polyreactivity”. Consider “QVQLVESRGGLVQAGGSLRLSCAASGSTFGPYTMGWYRQAPGKERELDAAISWNGGRTSYADSVKGRFTLSRDNAKNTVYLQKNSLKPEDTAGYYCAAGYFVGIYKRFYWGQGTQVTVSS”, for which the “polyreactivity (PSR sort gate)” value is given as “high polyreactivity”.

For “QVQLVESGGGLVQAGGSLRLSCAASGFTFPRYAMGWYRQAPGKERELVAAITSGDRTYYADSVKGRFTISRDNAKNTVYLQMNSLKPEDTAVYYCAKSSPRKSSQKHSFYEYNYWGQGTQVTVSS”, the “polyreactivity (PSR sort gate)” value was “high polyreactivity”.

For the origin of these results see the nanobody polyreactivity screen of Harvey et al. (2022).
